Target: T1, recombinant purified full length SRF (pET-15b, histidine tag, expressed in BL21)
T1 chain: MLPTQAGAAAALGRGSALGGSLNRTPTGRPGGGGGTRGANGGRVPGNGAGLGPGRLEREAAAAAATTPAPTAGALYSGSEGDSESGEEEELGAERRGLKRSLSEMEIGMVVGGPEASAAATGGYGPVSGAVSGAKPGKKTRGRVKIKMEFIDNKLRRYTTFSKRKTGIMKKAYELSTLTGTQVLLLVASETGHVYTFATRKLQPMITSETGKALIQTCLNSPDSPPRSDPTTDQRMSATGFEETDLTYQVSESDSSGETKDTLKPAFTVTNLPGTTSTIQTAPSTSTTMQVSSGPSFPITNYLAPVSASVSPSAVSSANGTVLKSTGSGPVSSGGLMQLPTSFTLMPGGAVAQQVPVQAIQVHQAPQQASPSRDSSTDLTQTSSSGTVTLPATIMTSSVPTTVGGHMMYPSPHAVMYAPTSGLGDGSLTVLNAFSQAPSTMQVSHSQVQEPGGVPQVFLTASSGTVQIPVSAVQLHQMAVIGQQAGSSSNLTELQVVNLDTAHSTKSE

B1: active recombinant human caspase 3 (BD PharMingen) (protein)
chain: SGISLDNSYKMDYPEMGLCIIINNKNFHKSTGMTSRSGTDVDAANLRETFRNLKYEVRNKNDLTREEIVELMRDVSKEDHSKRSSFVCVLLSHGEEGIIFGTNGPVDLKKITNFFRGDRCRSLTGKPKLFIIQACRGTELDCGIETDSGVDDDMACHKIPVEADFLYAYSTAPGYYSWRNSKDGSWFIQSLCAMLKQYADKLEFMHILTRVNRKVATEFESFSFDATFHAKKQIPCIVSMLTKELYFYH
in vitro cleavage of SRF, read by Western blot: Caspase 3 cleaved SRF in a time-dependent manner

— patent publication US20040214771
